# What was measured:
# [1] = target: HLA-A*02:01 on T2 cells without peptide loading (human); test: flow cytometry, BB7.2 staining of T2 cells
# [2] = target: mutant histone K27M-H3.3 26-35 peptide/HLA-A*02:01 complex on T2 cells (human); test: flow cytometry, BB7.2 staining of T2 cells
# [3] = target: WT H3.1 26-35 peptide/HLA-A*02:01 complex on T2 cells (human); test: flow cytometry, BB7.2 staining of T2 cells
# [4] = target: WT H3.3 26-35 peptide/HLA-A*02:01 complex on T2 cells (human); test: flow cytometry, BB7.2 staining of T2 cells
# [5] = target: mutant histone K27M-H3.1 26-35 peptide/HLA-A*02:01 complex on T2 cells (human); test: flow cytometry, BB7.2 staining of T2 cells
# [6] = target: control peptide mixture P20/HLA-A*02:01 complexes on T2 cells (human); test: flow cytometry, BB7.2 staining of T2 cells
# [7] = target: HLA-A*02:01 on T2 cells without peptide loading (human); test: flow cytometry on T2 cells, secondary antibody only, no phage (background control)
# [8] = target: mutant histone K27M-H3.3 26-35 peptide/HLA-A*02:01 complex on T2 cells (human); test: as above
# [9] = target: WT H3.1 26-35 peptide/HLA-A*02:01 complex on T2 cells (human); test: as above
# [10] = target: WT H3.3 26-35 peptide/HLA-A*02:01 complex on T2 cells (human); test: as above
# [11] = target: mutant histone K27M-H3.1 26-35 peptide/HLA-A*02:01 complex on T2 cells (human); test: as above
# [12] = target: control peptide mixture P20/HLA-A*02:01 complexes on T2 cells (human); test: as above
# [13] = target: HLA-A*02:01 on T2 cells without peptide loading (human); test: flow cytometry on T2 cells, anti-M13 + PE anti-mouse IgG, no phage (background control)
# [14] = target: mutant histone K27M-H3.3 26-35 peptide/HLA-A*02:01 complex on T2 cells (human); test: as above
# [15] = target: WT H3.1 26-35 peptide/HLA-A*02:01 complex on T2 cells (human); test: as above
# [16] = target: WT H3.3 26-35 peptide/HLA-A*02:01 complex on T2 cells (human); test: as above
# [17] = target: mutant histone K27M-H3.1 26-35 peptide/HLA-A*02:01 complex on T2 cells (human); test: as above
# [18] = target: control peptide mixture P20/HLA-A*02:01 complexes on T2 cells (human); test: as above
# [19] = target: HLA-A*02:01 on T2 cells without peptide loading (human); test: flow cytometry, phage on T2 cells, anti-M13 + PE anti-mouse IgG
# [20] = target: mutant histone K27M-H3.3 26-35 peptide/HLA-A*02:01 complex on T2 cells (human); test: as above
# [21] = target: WT H3.1 26-35 peptide/HLA-A*02:01 complex on T2 cells (human); test: as above
# [22] = target: WT H3.3 26-35 peptide/HLA-A*02:01 complex on T2 cells (human); test: as above
# [23] = target: mutant histone K27M-H3.1 26-35 peptide/HLA-A*02:01 complex on T2 cells (human); test: as above
# [24] = target: control peptide mixture P20/HLA-A*02:01 complexes on T2 cells (human); test: as above
substance,measurement,setting,value
BB7.2 (antibody),Median MFI (PE-A),[1],3600 MFI
same,Median MFI (PE-A),[2],9650 MFI
same,Median MFI (PE-A),[3],8700 MFI
same,Median MFI (PE-A),[4],8650 MFI
same,Median MFI (PE-A),[5],9530 MFI
same,Median MFI (PE-A),[6],11300 MFI
R-PE conjugated horse anti-mouse IgG (antibody),Median MFI (PE-A),[7],82 MFI
same,Median MFI (PE-A),[8],83 MFI
same,Median MFI (PE-A),[9],83 MFI
same,Median MFI (PE-A),[10],83 MFI
same,Median MFI (PE-A),[11],85 MFI
same,Median MFI (PE-A),[12],82 MFI
mouse anti-M13 mAb (antibody),Median MFI (PE-A),[13],80 MFI
same,Median MFI (PE-A),[14],83 MFI
same,Median MFI (PE-A),[15],86 MFI
same,Median MFI (PE-A),[16],83 MFI
same,Median MFI (PE-A),[17],85 MFI
same,Median MFI (PE-A),[18],82 MFI
negative control phage,Median MFI (PE-A),[19],122 MFI
same,Median MFI (PE-A),[20],133 MFI
same,Median MFI (PE-A),[21],131 MFI
same,Median MFI (PE-A),[22],128 MFI
same,Median MFI (PE-A),[23],130 MFI
same,Median MFI (PE-A),[24],124 MFI
